This note sets out measurements from article PMC5518878.

The test concerns the target full-length rhodopsin of Figure 2A, fused to a TEV cleavage site and tTA (human) (UniProt P08100). As to the kind of experiment: Tango assay (TEV protease proximity reporter); HTL cells co-transfected with receptor-TEV cleavage site-tTA and GRK-TEV protease fusions; luciferase reporter; vehicle or ligand overnight (ATR 10 μM for rhodopsin; paroxetine; DHE 0.1 μM, GR 127935 1 μM; SX 1 μM, ICI 118 551 1 μM); DNA amounts adjusted for similar expression.

Chain of full-length rhodopsin of Figure 2A, fused to a TEV cleavage site and tTA (human) (P08100 whole entry, the tested form may be a part): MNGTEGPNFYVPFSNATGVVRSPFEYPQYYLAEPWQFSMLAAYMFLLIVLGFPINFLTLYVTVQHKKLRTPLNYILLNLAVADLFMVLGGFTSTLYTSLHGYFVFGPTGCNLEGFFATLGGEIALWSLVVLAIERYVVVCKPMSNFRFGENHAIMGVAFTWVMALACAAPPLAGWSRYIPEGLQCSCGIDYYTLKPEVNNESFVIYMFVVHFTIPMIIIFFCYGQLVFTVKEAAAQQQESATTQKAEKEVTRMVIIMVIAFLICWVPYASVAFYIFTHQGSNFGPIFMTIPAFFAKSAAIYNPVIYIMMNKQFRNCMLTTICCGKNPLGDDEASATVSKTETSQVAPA

B1: GRK1 (31-183)-TEV protease fusion (domain or fragment)
chain: RDKKYLAKLKLPPLSKCESLRDSLSLEFESVCLEQPIGKKLFQQFLQSAEKHLPALELWKDIEDYDTADNDLQPQKAQTILAQYLDPQAKLFCSFLDEGIVAKFKEGPVEIQDGLFQPLLQATLAHLGQAPFQEYLGSLYFLRFLQWKWLEAQ
In turn, B1 gave a binding capacity, percent of FL GRK1 of 70%.

B2: GRK1 (1-183)-TEV protease fusion (domain or fragment)
chain: MDFGSLETVVANSAFIAARGSFDGSSSQPSRDKKYLAKLKLPPLSKCESLRDSLSLEFESVCLEQPIGKKLFQQFLQSAEKHLPALELWKDIEDYDTADNDLQPQKAQTILAQYLDPQAKLFCSFLDEGIVAKFKEGPVEIQDGLFQPLLQATLAHLGQAPFQEYLGSLYFLRFLQWKWLEAQ
B2 returned a binding capacity, percent of FL GRK1 of 70%.
